In patent US20260042854A1, “ANTI-GLP-1R ANTIBODIES AND USES THEREOF” (SCIWIND BIOSCIENCES USA CO., LTD, priority 2022, published 2026):

Tests used:
[1] = target: hGLP-1R on the cell membrane (HEK293 cells overexpressing hGLP-1R) (human) (UniProt P43220); test: cell-based or functional assay
[2] = target: monkey GLP-1R (JN033215.1) on HEK293 cells (monkey); test: cell-based or functional assay

Chain of hGLP-1R on the cell membrane (HEK293 cells overexpressing hGLP-1R) (human) (P43220 24-463): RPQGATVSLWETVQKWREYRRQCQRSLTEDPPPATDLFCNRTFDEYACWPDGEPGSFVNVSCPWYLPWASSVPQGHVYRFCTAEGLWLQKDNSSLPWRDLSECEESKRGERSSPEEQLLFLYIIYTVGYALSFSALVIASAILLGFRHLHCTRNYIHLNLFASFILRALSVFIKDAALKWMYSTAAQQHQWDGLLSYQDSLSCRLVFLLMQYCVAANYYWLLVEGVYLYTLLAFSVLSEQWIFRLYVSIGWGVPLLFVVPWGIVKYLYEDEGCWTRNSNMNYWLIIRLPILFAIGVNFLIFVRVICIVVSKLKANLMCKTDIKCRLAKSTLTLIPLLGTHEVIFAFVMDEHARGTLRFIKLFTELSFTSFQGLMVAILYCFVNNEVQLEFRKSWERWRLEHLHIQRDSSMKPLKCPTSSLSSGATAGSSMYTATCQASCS

IC50, inhibition of GLP-1 (2.5 ng/ml) activity in hGLP-1R-CRE-Luciferase-HEK293 reporter gene assay [1]: 0.0172 µM | IC50, inhibition of GLP-1 (2.5 ng/mL) activity in monkey GLP-1R-CRE-Luciferase-HEK293 reporter gene assay [2]: 0.0138 µM
B1: P16891 (antibody, human IgG4 S228P, kappa)
heavy: QVQLVQSGAEMKKPGASVKVSCKTSGYRFSTYVISWVRQTPGQGLEWMGWISPYTGDIDYAQKFQGRVTITADESTSTAYMELSRLRSDDTAVYYCAREREGYNFPGMDVWGQGTTVTVSSASTKGPSVFPLAPCSRSTSESTAALGCLVKDYFPEPVTVSWNSGALTSGVHTFPAVLQSSGLYSLSSVVTVPSSSLGTKTYTCNVDHKPSNTKVDKRVESKYGPPCPPCPAPEFLGGPSVFLFPPKPKDTLYITREPEVTCVVVDVSQEDPEVQFNWYVDGVEVHNAKTKPREEQFNSTYRVVSVLTVLHQDWLNGKEYKCKVSNKGLPSSIEKTISKAKGQPREPQVYTLPPSQEEMTKNQVSLTCLVKGFYPSDIAVEWESNGQPENNYKTTPPVLDSDGSFFLYSRLTVDKSRWQEGNVFSCSVMHEALHNHYTQKSLSLSLGK
light: DIQLTQSPSFLSASVGDRVTITCRASQGISSYLAWYQQKPGRAPKLLIYSASTLQRGVPSRFSGSGSGTDFTLTISSLQPEDYATYYCQQAESFPPSFGPGTKVDIKRTVAAPSVFIFPPSDEQLKSGTASVVCLLNNFYPREAKVQWKVDNALQSGNSQESVTEQDSKDSTYSLSSTLTLSKADYEKHKVYACEVTHQGLSSPVTKSFNRGEC
